How the values were obtained:
[1] = biological target: the molecule itself; test: cryo-EM structure; telomerase-DNA-TPT complex assembled in HEK293T cells and purified as a whole, BS3 cross-linked; H/ACA RNP lobe by signal subtraction; 2.7 Å (semi-closed thumb loop) and 3.1 Å (open thumb loop) reconstructions
[2] = biological target: T1, TCAB1 (human (endogenous in HEK293T), UniProt Q9BUR4 1-548); test: as above; details: both partners purified
T1 construct: TCAB1, human, Cajal body localization factor of the telomerase H/ACA RNP; also called Cajal body localization factor; source: HEK293T cells transfected with TERT and hTR
T1 sequence (Q9BUR4 whole entry): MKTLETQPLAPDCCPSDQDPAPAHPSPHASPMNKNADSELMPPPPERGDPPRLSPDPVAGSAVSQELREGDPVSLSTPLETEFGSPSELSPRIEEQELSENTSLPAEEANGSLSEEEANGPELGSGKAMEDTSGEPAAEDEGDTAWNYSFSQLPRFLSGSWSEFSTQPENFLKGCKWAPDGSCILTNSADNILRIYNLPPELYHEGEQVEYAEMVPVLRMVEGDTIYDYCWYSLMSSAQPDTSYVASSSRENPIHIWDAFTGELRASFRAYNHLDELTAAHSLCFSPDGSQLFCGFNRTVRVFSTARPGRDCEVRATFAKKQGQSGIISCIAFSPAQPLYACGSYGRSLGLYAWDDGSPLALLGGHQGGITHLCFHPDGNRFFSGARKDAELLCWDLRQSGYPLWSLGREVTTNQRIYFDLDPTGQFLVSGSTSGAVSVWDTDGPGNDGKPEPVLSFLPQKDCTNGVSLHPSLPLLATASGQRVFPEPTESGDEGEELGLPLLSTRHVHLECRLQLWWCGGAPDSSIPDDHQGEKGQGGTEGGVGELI

binding result [2] | Binder | binding result [1]
– | dyskerin (natural protein, human (endogenous in HEK293T), UniProt O60832 1-514, looked up, dyskerin, human, catalytic pseudouridine synthase subunit of H/ACA RNPs; domains NTE, PUA, TruB, CTE; two copies (5’ and 3’) stand in the telomerase H/ACA RNP; residues 1-22 (5’ copy) and 1-42 (3’ copy) are not visible in the map; also called 5’ dyskerin; 3’ dyskerin; source: endogenous, HEK293T cells transfected with TERT and hTR) MADAEVIILPKKHKKKKERKSLPEEDVAEIQHAEEFLIKPESKVAKLDTSQWPLLLKNFDKLNVRTTHYTPLACGSNPLKREIGDYIRTGFINLDKPSNPSSHEVVAWIRRILRVEKTGHSGTLDPKVTGCLIVCIERATRLVKSQQSAGKEYVGIVRLHNAIEGGTQLSRALETLTGALFQRPPLIAAVKRQLRVRTIYESKMIEYDPERRLGIFWVSCEAGTYIRTLCVHLGLLLGVGGQMQELRRVRSGVMSEKDHMVTMHDVLDAQWLYDNHKDESYLRRVVYPLEKLLTSHKRLVMKDSAVNAICYGAKIMLPGVLRYEDGIEVNQEIVVITTKGEAICMAIALMTTAVISTCDHGIVAKIKRVIMERDTYPRKWGLGPKASQKKLMIKQGLLDKHGKPTDSTPATWKQEYVDYSESAKKEVVAEVVKAPQVVAEAAKTAKRKRESESESDETPPAAPQLIKKEKKKSKKDKKAKAGLESGAEPGDGDSDTTKKKKKKKKAKEVELVSE | binds
binds | NHP2 (natural protein, human (endogenous in HEK293T), UniProt Q9NX24 1-153, looked up, NHP2, human, core H/ACA protein; two copies (5’ and 3’) stand in the telomerase H/ACA RNP; also called 3’ NHP2; source: HEK293T cells transfected with TERT and hTR) MTKIKADPDGPEAQAEACSGERTYQELLVNQNPIAQPLASRRLTRKLYKCIKKAVKQKQIRRGVKEVQKFVNKGEKGIMVLAGDTLPIEVYCHLPVMCEDRNLPYVYIPSKTDLGAAAGSKRPTCVIMVKPHEEYQEAYDECLEEVQSLPLPL | –
